Results taken from patent US20230235057A1.

Assays:
[1] = molecular target: human TGFβ1 protein (Sinobiological, 10804-H08H) (human) (UniProt P01137); assay: ELISA, plate coated with human TGFβ1, HRP-goat anti-human IgG detection
[2] = molecular target: human TGFβ1 protein (Sinobiological, 10804-H08H) (human) (UniProt P01137); assay: ELISA with reference to Example 5, reference sample
[3] = molecular target: human TGFβ1 protein (Sinobiological, 10804-H08H) (human) (UniProt P01137); assay: ELISA with reference to Example 5, plate coated with human TGFβ1

PD1/TGFβRII fusion protein, sequence (heavy): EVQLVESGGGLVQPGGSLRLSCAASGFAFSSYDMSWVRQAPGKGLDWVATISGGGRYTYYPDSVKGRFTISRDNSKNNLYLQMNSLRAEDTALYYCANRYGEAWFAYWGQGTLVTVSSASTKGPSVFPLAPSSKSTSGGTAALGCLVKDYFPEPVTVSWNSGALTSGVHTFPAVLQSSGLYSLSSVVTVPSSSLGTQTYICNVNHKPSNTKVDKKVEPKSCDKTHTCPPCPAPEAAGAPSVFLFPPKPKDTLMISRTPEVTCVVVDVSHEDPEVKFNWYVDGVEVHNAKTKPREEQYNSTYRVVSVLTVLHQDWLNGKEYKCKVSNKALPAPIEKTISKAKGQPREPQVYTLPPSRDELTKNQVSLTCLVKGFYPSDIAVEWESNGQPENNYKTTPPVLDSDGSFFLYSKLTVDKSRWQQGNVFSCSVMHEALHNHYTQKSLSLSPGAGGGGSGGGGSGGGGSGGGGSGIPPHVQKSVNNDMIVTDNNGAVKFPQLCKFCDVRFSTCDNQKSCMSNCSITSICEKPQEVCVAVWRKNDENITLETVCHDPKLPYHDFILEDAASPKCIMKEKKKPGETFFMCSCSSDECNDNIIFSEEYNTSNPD
PD1/TGFβRII fusion protein, sequence (light): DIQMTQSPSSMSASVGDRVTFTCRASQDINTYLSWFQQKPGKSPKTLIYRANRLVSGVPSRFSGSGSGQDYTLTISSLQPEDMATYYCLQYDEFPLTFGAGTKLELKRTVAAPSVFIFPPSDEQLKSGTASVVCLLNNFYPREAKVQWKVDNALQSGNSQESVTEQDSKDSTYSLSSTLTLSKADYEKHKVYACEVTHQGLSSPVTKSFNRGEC

## PD1/TGFβRII fusion protein
[1]
  EC50: 0.398 nM
[2]
  Binding activity (EC50 of control / EC50 of test sample): 100%
[3]
  EC50: 0.0617 µg/mL
